These are literature values, as cited in patent publication US20200306346A1 (ADOCIA, priority 2017, published 2020).

Data set [1] has as its system mammalian cells in culture.
Another data set has as its system patients. Conditions: in vivo.

In the case of “fibrillated human glucagon: "potentially dangerous nature of these fibrils: fibrillated human glucagon being cytotoxic in mammalian cells in culture"”, the cytotoxicity result in data set [1] is “cytotoxic”.

Consider pegnivacogin, for which, in the data set on patients, the “inflammatory responses at the first dose” value is 3 out of 640.
